T1: Bbc1, P47068
T1 sequence (P47068 1-78, looked up): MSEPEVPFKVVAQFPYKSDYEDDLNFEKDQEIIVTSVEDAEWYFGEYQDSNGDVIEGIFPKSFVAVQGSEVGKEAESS

T2: Lsb3, P43603
T2 sequence (P43603 385-451, looked up): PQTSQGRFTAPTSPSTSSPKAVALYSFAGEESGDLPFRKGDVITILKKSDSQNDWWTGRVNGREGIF

T3: Pex13, P80667
T3 sequence (P80667 295-386, looked up): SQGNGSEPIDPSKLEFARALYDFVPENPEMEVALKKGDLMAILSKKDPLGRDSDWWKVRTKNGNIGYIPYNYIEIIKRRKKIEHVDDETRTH

T4: Sla1-2, P32790
T4 sequence (P32790 60-140, looked up): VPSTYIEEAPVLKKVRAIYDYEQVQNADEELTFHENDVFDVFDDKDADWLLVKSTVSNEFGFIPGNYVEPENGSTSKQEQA

T5: Lsb1, P53281
T5 sequence (P53281 45-122, looked up): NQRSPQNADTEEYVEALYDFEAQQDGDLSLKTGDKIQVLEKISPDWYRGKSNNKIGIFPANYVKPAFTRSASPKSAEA

T6: Lsb4, P32793
T6 sequence (P32793 402-468, looked up): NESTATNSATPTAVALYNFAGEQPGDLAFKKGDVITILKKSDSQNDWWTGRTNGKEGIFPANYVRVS

T7: Myo5, Q04439
T7 sequence (Q04439 1072-1160, looked up): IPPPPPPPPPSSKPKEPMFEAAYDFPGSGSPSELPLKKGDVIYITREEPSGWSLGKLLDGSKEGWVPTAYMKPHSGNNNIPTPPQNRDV

T8: Nbp2, Q12163
T8 sequence (Q12163 103-180, looked up): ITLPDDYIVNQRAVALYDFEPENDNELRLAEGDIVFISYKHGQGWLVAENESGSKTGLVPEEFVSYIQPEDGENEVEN

T9: Hse1, P38753
T9 sequence (P38753 208-285, looked up): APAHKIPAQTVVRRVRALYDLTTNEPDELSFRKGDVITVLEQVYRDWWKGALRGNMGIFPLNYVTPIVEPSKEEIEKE

T10: Bzz1-2, P38822
T10 sequence (P38822 568-633, looked up): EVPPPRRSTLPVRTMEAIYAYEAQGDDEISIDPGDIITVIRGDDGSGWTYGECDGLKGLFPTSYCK

T11: Boi2, P39969
T11 sequence (P39969 32-116, looked up): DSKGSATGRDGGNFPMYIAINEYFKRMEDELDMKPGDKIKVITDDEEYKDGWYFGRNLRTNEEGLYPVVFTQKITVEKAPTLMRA

T12: Cyk3, Q07533
T12 sequence (Q07533 1-83, looked up): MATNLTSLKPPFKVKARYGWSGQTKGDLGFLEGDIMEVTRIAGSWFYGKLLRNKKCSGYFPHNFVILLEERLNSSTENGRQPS

T13: Boi1, P38041
T13 sequence (P38041 1-86, looked up): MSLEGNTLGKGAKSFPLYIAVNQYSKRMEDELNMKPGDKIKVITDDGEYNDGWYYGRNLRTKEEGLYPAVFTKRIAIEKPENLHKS

T14: Abp1, P15891
T14 sequence (P15891 535-592, looked up): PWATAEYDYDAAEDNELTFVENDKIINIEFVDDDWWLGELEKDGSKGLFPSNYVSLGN

T15: Pin3, Q06449
T15 sequence (Q06449 53-122, looked up): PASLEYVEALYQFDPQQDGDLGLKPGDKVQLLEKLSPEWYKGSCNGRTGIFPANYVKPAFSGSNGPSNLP

T16: Bzz1-1, P38822
T16 sequence (P38822 478-572, looked up): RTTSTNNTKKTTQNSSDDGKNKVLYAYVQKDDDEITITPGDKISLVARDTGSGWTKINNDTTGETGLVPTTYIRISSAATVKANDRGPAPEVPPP

T17: Cdc25, P04821
T17 sequence (P04821 50-136, looked up): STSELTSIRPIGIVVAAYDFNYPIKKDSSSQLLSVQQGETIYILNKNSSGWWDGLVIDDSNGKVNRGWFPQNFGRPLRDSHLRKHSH

T18: Fus1, P11710
T18 sequence (P11710 432-512, looked up): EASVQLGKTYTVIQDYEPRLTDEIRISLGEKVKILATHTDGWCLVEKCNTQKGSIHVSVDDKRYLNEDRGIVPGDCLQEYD

T19: Hof1, Q05080
T19 sequence (Q05080 590-669, looked up): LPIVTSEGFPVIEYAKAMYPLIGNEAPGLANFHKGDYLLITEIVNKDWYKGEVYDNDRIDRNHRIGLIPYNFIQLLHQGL

T20: Bud14, P27637
T20 sequence (P27637 247-328, looked up): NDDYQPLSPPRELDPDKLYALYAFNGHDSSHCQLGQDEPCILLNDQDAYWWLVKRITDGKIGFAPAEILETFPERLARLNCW

T21: Sla1-3, P32790
T21 sequence (P32790 344-424, looked up): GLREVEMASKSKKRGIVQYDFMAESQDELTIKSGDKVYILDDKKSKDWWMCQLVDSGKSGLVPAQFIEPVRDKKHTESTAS


Each binder was assayed against T1, Bbc1, P47068 (assay: SPOT array). Conditions: median of control spots 796.

Row | SPOT intensity | Binder
1 | 663 | VGFRLALKFPSRITG
2 | 44 | FLIKFTPKFPQSIDH
3 | 15 | FVLRYYILIPHEQWD

The binders below were run against T2, Lsb3, P43603 (assay: SPOT array). Conditions: median of control spots 406.

Row | SPOT intensity | Binder
4 | 166 | VGFRLALKFPSRITG
5 | 32 | FLIKFTPKFPQSIDH
6 | 0 | FVLRYYILIPHEQWD

These binders were tested against T3, Pex13, P80667 (assay: SPOT array). Conditions: median of control spots 1341.

Row | SPOT intensity | Binder
7 | 127 | VGFRLALKFPSRITG
8 | 73 | FLIKFTPKFPQSIDH
9 | 10 | FVLRYYILIPHEQWD

The binders below were run against T4, Sla1-2, P32790 (assay: SPOT array). Conditions: median of control spots 712.

Row | SPOT intensity | Binder
10 | 52 | VGFRLALKFPSRITG
11 | 10 | FLIKFTPKFPQSIDH
12 | 3 | FVLRYYILIPHEQWD

What follows are binders tested against Bem1-1, P29366 (assay: SPOT array). Conditions: median of control spots 4282.
Sequence of Bem1-1, P29366 (P29366 55-141): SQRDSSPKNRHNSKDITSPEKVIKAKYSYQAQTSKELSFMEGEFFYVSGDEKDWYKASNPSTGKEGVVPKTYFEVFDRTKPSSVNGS

Row | SPOT intensity | Binder
13 | 0 | VGFRLALKFPSRITG
14 | 1 | FLIKFTPKFPQSIDH
15 | 2 | FVLRYYILIPHEQWD

These binders were tested against Bem1-2, P29366 (assay: SPOT array). Conditions: median of control spots 4347.
Sequence of Bem1-2, P29366 (P29366 139-227): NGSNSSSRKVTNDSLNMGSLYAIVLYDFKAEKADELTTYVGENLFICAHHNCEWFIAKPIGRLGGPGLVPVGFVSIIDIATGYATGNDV

Row | SPOT intensity | Binder
16 | 0 | VGFRLALKFPSRITG
17 | 0 | FLIKFTPKFPQSIDH
18 | 13 | FVLRYYILIPHEQWD

What follows are binders tested against Rvs167, P39743 (assay: SPOT array). Conditions: median of control spots 2707.
Sequence of Rvs167, P39743 (P39743 419-482): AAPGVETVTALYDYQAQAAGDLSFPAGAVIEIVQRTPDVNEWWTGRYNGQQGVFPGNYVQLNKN

Row | SPOT intensity | Binder
19 | 6 | VGFRLALKFPSRITG
20 | 2 | FLIKFTPKFPQSIDH
21 | 0 | FVLRYYILIPHEQWD

Each binder was assayed against T5, Lsb1, P53281 (assay: SPOT array). Conditions: median of control spots 388.

Row | SPOT intensity | Binder
22 | 452 | VGFRLALKFPSRITG
23 | 46 | FLIKFTPKFPQSIDH
24 | 2 | FVLRYYILIPHEQWD

The binders below were run against T6, Lsb4, P32793 (assay: SPOT array). Conditions: median of control spots 397.

Row | SPOT intensity | Binder
25 | 207 | VGFRLALKFPSRITG
26 | 63 | FLIKFTPKFPQSIDH
27 | 0 | FVLRYYILIPHEQWD

What follows are binders tested against T7, Myo5, Q04439 (assay: SPOT array). Conditions: median of control spots 471.

Row | SPOT intensity | Binder
28 | 69 | VGFRLALKFPSRITG
29 | 27 | FLIKFTPKFPQSIDH
30 | 0 | FVLRYYILIPHEQWD

These binders were tested against GST (assay: SPOT array). Conditions: median of control spots 978.

Row | SPOT intensity | Binder
31 | 0 | VGFRLALKFPSRITG
32 | 0 | FLIKFTPKFPQSIDH
33 | 0 | FVLRYYILIPHEQWD

Each binder was assayed against T8, Nbp2, Q12163 (assay: SPOT array). Conditions: median of control spots 357.

Row | SPOT intensity | Binder
34 | 1100 | VGFRLALKFPSRITG
35 | 418 | FLIKFTPKFPQSIDH
36 | 47 | FVLRYYILIPHEQWD

Each binder was assayed against T9, Hse1, P38753 (assay: SPOT array). Conditions: median of control spots 1727.

Row | SPOT intensity | Binder
37 | 113 | VGFRLALKFPSRITG
38 | 25 | FLIKFTPKFPQSIDH
39 | 2 | FVLRYYILIPHEQWD

The binders below were run against T10, Bzz1-2, P38822 (assay: SPOT array). Conditions: median of control spots 4538.

Row | SPOT intensity | Binder
40 | 109 | VGFRLALKFPSRITG
41 | 9 | FLIKFTPKFPQSIDH
42 | 2 | FVLRYYILIPHEQWD

What follows are binders tested against T11, Boi2, P39969 (assay: SPOT array). Conditions: median of control spots 1161.

Row | SPOT intensity | Binder
43 | 70 | VGFRLALKFPSRITG
44 | 0 | FLIKFTPKFPQSIDH
45 | 1 | FVLRYYILIPHEQWD

The binders below were run against T12, Cyk3, Q07533 (assay: SPOT array). Conditions: median of control spots 1451.

Row | SPOT intensity | Binder
46 | 25 | VGFRLALKFPSRITG
47 | 0 | FLIKFTPKFPQSIDH
48 | 0 | FVLRYYILIPHEQWD

These binders were tested against T13, Boi1, P38041 (assay: SPOT array). Conditions: median of control spots 1162.

Row | SPOT intensity | Binder
49 | 152 | VGFRLALKFPSRITG
50 | 7 | FLIKFTPKFPQSIDH
51 | 6 | FVLRYYILIPHEQWD

The binders below were run against T14, Abp1, P15891 (assay: SPOT array). Conditions: median of control spots 935.

Row | SPOT intensity | Binder
52 | 489 | VGFRLALKFPSRITG
53 | 417 | FLIKFTPKFPQSIDH
54 | 0 | FVLRYYILIPHEQWD

What follows are binders tested against T15, Pin3, Q06449 (assay: SPOT array). Conditions: median of control spots 2171.

Row | SPOT intensity | Binder
55 | 150 | VGFRLALKFPSRITG
56 | 41 | FLIKFTPKFPQSIDH
57 | 9 | FVLRYYILIPHEQWD

These binders were tested against T16, Bzz1-1, P38822 (assay: SPOT array). Conditions: median of control spots 4446.

Row | SPOT intensity | Binder
58 | 3 | VGFRLALKFPSRITG
59 | 0 | FLIKFTPKFPQSIDH
60 | 1 | FVLRYYILIPHEQWD

The binders below were run against T17, Cdc25, P04821 (assay: SPOT array). Conditions: median of control spots 969.

Row | SPOT intensity | Binder
61 | 490 | VGFRLALKFPSRITG
62 | 209 | FLIKFTPKFPQSIDH
63 | 59 | FVLRYYILIPHEQWD

The binders below were run against Sho1, P40073 (assay: SPOT array). Conditions: median of control spots 1148.
Sequence of Sho1, P40073 (P40073 287-367): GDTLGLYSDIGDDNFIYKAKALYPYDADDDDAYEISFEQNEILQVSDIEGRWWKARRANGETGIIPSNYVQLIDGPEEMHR

Row | SPOT intensity | Binder
64 | 718 | VGFRLALKFPSRITG
65 | 304 | FLIKFTPKFPQSIDH
66 | 5 | FVLRYYILIPHEQWD

Each binder was assayed against T18, Fus1, P11710 (assay: SPOT array). Conditions: median of control spots 1200.

Row | SPOT intensity | Binder
67 | 430 | VGFRLALKFPSRITG
68 | 100 | FLIKFTPKFPQSIDH
69 | 42 | FVLRYYILIPHEQWD

What follows are binders tested against T19, Hof1, Q05080 (assay: SPOT array). Conditions: median of control spots 4086.

Row | SPOT intensity | Binder
70 | 25 | VGFRLALKFPSRITG
71 | 24 | FLIKFTPKFPQSIDH
72 | 5 | FVLRYYILIPHEQWD

The binders below were run against T20, Bud14, P27637 (assay: SPOT array). Conditions: median of control spots 956.

Row | SPOT intensity | Binder
73 | 29 | VGFRLALKFPSRITG
74 | 5 | FLIKFTPKFPQSIDH
75 | 1 | FVLRYYILIPHEQWD

These binders were tested against Myo3, P36006 (assay: SPOT array). Conditions: median of control spots 468.

Row | SPOT intensity | Binder
76 | 164 | VGFRLALKFPSRITG
77 | 77 | FLIKFTPKFPQSIDH
78 | 0 | FVLRYYILIPHEQWD

What follows are binders tested against T21, Sla1-3, P32790 (assay: SPOT array). Conditions: median of control spots 5475.

Row | SPOT intensity | Binder
79 | 124 | VGFRLALKFPSRITG
80 | 13 | FLIKFTPKFPQSIDH
81 | 3 | FVLRYYILIPHEQWD

From paper PMC2756588
